Results from the supplement of paper PMC10567573.

B1: SPATS1 (parent)
chain: GRKKYDIDPRNGIPKLTPGDNPYM
B2: ZNF8 (parent)
chain: RTHTGEKPYTCSVCGKSFSRTTCL

Variants of: B1
Test: protein stability index of a GFP-peptide fusion (GPS, HEK-293T) (PSI 1-6); higher = more stable
Details: c terminus: a fixed tail appended
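Note: lentivirally expressed fusions sorted by FACS into six bins by GFP to DsRed ratio, PSI derived from sequencing read proportions per bin multiplied by bin number.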

Protein stability index: each site, then its substitutions
N21: E 4.6; P 3.54; L 2.88; M 3.32; K 3.51; S 3.72; F 2.78; G 3.96; W 2.63; V 3.14; H 3.33; C 3.34; D 4.23; T 3.46; I 3.5; A 3.84; Q 3.67; R 3.41; Y 3.06
P22: Y 3.44; W 2.62; E 3.85; R 4.22; H 3.74; N 3.64; I 3.64; L 3.31; Q 3.98; V 3.42; M 3.37; K 3.89; C 3.34; S 3.54; A 4.01; G 3.53; D 3.91; T 4.01; F 3.02
Y23: L 4.48; F 3.37; T 4.6; D 4.84; R 4.34; N 4.43; K 4.41; H 3.93; V 4.18; E 4.61; W 3.05; S 3.94; G 4.04; Q 4.56; M 3.82; P 4.41; I 3.72; A 4.3; C 3.26
D20: Y 2.49
M24: H 3.76; I 3.46; W 3.53; D 4.4; V 4.22; E 4.56; K 4.03; R 3.59; Q 4.02; P 3.98; Y 3.73; F 3.1; A 4.21; S 4.21; G 3.5; C 3.73; L 3.62; N 4.11; T 4.04

Variants of: B2
Test: as above
Details: c terminus: a fixed tail appended

Protein stability index: each site, then its substitutions
R20: I 1.75; T 2.77; D 3.46; W 2.47; Q 2.87; Y 2.91; G 3.17; S 2.17; N 2.76; P 2.75
S17: D 2.55; V 2.67; L 2.34; A 2.48; N 2.36; F 1.48; K 2.87; T 2.63; M 2.03; Q 2.58; R 2.77
T22: N 2.94; E 4.28; G 2.1; W 1.86; F 2.3; P 2.43; Q 2.5; A 2.56; C 4.01; V 2.16; D 2.27; Y 1.98; R 1.8
L24: Q 2.96; H 3.46; I 2.8; R 2.73; E 3.28; Y 2.48; K 2.76; C 4.72; W 2.8; P 3.17; M 2.87; N 3.03
S12: W 2.17; D 2.59; H 2.41; R 2.21; V 2.21; G 2.02; N 2.24; F 2.05; Q 2.33
T10: R 2.51; Y 1.98; P 2.27; E 2.39; C 2.83; F 1.89; M 2.19; A 2.06; V 2.72; W 1.75; N 2.2; G 2.21; S 2.36
F18: E 3.37; D 2.92; R 2.56; H 4.78; S 2.73; P 2.01; I 1.54; M 1.89
E6: D 2.9; S 1.92; M 2.19; R 1.92; A 2.31; W 2.06; V 2.04; T 2.08; K 2.53
H3: M 2.37; R 2.15; A 1.86; Y 2.27; D 2.82; F 2.08; W 1.82; K 2.05; S 2.66; N 2.72; G 2.86
G15: S 1.87; P 2.57; W 1.43; H 1.81; E 2.15; D 2.36; N 1.92; I 1.46; C 1.83; Y 1.32; F 2.28; M 1.6
R1: M 2.61; V 3.18; N 2.6; A 2.43; Q 2.33; P 2.64; D 2.85; K 2.24; S 2.34; C 4.33
C14: S 2.41; H 2.89; P 2.82; N 2.87; E 2.46; M 2.88; T 2.46; Q 2.17; L 2.76
K16: F 1.77; S 1.75; V 1.96; Y 1.87; G 2.41; W 1.84; D 2.08; E 2.61; M 2.2
C23: S 2.03; H 2.26; Y 2.57; E 3; M 2.19; R 1.84
P8: V 2.59; I 3.05; A 3.27; W 2.9; N 2.93; F 2.25; M 2.62; H 2.63; Q 3.05
Y9: R 2.29; A 2.3; G 2.5; K 2.08; H 2.11; T 2.59; W 2.42; C 3.77; E 2.95; S 2.62; D 2.78; I 2.59; V 2.65; M 2.23; P 2.4
C11: G 2.33; H 1.99; Y 1.86; N 2.79; Q 3.18; P 2.56; S 2.52; L 2.43; K 2.25; T 2.39; A 2.88; M 3.35; W 1.82; I 2.01; E 2.48
K7: V 2.44; W 2.31; G 3.25; A 2.35; M 2.29; D 2.17; Q 2.08; T 2.49; R 2.49; L 2.72; H 2.93; N 2.42; Y 2.36
T21: P 2.58; H 3.29; Q 2.49; R 2.39; F 1.71; E 2.67; A 2.7; I 2.15; D 3.37; S 2.16; G 3.27
T2: I 1.86; D 2.93; R 2.19; Y 2.07; V 2.55; M 2.39; H 2.52; W 2.2; A 2.32
T4: Y 2.27; E 3.43; L 2.18; N 3.12; K 3.02; S 2.77; G 2.44
V13: G 2; S 2.56; C 3.54; T 1.89; N 2.26; R 1.99; A 2.26; Q 1.28; W 1.65; Y 2.43; K 2.61; E 2.47; F 2.48; P 1.97
G5: H 2.25; Q 2.36; S 3.15; C 2.84; P 2.4; Y 2.15; K 2.78; R 2.5; D 2.62; V 2.87; W 2.74; F 2.64
S19: W 2.42; R 3.8; E 2.67; D 2.79; G 2.35; A 1.36; L 2.51; T 2.41; N 2.67; I 2.07
